Reference: publication PMC4822050

Tests used:
Assay in all cases: FP; ITC: 10 mM HEPES pH 8.0, 100 mM NaCl, 18 C; EMSA: 20 mM HEPES pH 7.5, 100 mM NaCl, 8% glycerol, 1 mM DTT, on ice; pull-down: 20 mM HEPES-NaOH pH 8.0, 100 mM NaC
UHRF1 delta627-674 = target: T1, UHRF1 delta627-674 (human, UniProt Q96T88 1-793, del627-674)
T1 sequence: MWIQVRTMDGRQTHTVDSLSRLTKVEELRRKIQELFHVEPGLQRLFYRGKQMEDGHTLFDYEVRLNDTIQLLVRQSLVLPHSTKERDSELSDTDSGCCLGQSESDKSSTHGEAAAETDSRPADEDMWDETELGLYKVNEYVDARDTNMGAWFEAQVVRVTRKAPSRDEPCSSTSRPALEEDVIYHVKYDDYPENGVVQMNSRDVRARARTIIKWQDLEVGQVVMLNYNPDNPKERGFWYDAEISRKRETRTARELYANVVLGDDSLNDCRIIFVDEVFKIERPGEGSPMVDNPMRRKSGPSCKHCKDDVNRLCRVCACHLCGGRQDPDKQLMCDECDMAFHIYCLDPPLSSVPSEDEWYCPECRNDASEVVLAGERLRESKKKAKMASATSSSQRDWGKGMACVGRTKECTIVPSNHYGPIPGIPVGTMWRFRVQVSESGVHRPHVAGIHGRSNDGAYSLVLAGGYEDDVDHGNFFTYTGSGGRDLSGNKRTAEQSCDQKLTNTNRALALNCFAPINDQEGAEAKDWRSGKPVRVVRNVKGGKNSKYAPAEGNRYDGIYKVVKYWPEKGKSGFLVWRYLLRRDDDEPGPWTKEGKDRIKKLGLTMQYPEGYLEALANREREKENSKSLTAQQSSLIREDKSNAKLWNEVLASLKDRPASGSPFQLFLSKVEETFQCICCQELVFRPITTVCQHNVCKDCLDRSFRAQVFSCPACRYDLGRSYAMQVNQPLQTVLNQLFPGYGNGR

SRA-Spacer-652 = target: T2, SRA-Spacer-652 (human, UniProt Q96T88 414-652)
T2 sequence: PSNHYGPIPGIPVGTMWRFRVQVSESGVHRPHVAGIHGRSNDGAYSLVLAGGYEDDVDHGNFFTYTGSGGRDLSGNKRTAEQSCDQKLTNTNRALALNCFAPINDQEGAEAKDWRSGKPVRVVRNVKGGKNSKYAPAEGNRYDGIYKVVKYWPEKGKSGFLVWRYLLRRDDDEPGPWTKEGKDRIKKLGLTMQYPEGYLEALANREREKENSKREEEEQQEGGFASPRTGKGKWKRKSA

UHRF1 full-length = target: T3, UHRF1 full-length (human, UniProt Q96T88 1-793)
T3 sequence: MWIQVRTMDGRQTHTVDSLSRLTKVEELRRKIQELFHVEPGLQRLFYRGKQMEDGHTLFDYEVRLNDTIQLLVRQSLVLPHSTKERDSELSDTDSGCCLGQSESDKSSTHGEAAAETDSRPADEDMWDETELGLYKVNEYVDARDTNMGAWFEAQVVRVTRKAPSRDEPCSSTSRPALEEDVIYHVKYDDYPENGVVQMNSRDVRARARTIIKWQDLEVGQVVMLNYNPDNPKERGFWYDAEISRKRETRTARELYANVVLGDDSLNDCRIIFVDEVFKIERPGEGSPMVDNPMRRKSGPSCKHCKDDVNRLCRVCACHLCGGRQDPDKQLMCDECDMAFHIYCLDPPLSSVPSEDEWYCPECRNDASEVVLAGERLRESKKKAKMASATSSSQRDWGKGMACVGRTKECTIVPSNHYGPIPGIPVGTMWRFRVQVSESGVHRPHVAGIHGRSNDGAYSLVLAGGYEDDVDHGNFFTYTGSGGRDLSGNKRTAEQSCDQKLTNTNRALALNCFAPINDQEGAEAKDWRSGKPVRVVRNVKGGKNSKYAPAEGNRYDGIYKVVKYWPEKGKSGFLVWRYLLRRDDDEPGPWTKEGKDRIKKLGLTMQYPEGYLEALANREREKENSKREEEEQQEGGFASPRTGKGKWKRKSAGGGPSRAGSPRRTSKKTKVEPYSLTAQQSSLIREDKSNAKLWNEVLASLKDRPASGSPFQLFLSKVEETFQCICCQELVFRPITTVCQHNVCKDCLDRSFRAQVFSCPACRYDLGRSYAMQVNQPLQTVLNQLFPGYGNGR

SRA-Spacer-661 = target: T4, SRA-Spacer-661 (human, UniProt Q96T88 414-661)
T4 sequence: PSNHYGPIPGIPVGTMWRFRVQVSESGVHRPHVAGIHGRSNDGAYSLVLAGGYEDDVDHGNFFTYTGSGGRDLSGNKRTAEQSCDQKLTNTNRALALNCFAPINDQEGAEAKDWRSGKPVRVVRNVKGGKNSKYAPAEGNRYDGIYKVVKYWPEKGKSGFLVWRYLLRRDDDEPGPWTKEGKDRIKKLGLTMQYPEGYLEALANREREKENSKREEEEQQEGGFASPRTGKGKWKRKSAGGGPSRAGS

B1: FAM-12bp-HM-DNA (dsDNA)
DNA 1: CCATGCGCTGAC
DNA 2: GTCAGCGCATGG
modifications: 5-methyl-dC at position 6 of strand 2 (GTCAGXGCATGG)
Kd (UHRF1 delta627-674): 4.94 ± 1.09 µM | Kd (SRA-Spacer-652): 1870 ± 330 nM | Kd (UHRF1 full-length): 350 ± 70 nM | Kd (SRA-Spacer-661): 380 ± 60 nM
